From article PMC4856418, “Inactive mutants of human pyridoxine 5′‐phosphate oxidase: a possible role for a noncatalytic pyridoxal 5′‐phosphate tight binding site” (FEBS Open Bio, 2016)

Assays:
Experiment in all cases: fluorescence polarisation; 1 μM FMI-labeled hPNPO in a 96-well plate, B6 enzymes added at 0 to 20 μM, incubated at 25 °C for 5 h; excitation 495 nm, emission 535 nm; curves fitted to a simple 1:1 model
Conditions in all cases: both partners purified
[1] = biological target: T1, E. coli aspartate aminotransferase (eAATase) (E. coli, UniProt P00509 1-396)
T1 construct: E. coli aspartate aminotransferase
T1 sequence (looked up): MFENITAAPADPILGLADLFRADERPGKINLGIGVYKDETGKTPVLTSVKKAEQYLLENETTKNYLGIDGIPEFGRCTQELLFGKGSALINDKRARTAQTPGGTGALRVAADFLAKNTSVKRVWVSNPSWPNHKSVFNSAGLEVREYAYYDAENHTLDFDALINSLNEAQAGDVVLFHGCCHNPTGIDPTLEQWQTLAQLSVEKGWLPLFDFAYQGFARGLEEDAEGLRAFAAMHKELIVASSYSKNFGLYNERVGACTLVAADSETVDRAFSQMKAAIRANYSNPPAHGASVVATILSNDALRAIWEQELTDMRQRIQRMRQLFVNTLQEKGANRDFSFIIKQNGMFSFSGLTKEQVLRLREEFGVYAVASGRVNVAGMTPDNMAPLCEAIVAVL

[2] = biological target: T2, rabbit cytosolic serine hydroxymethyltransferase (rcSHMT) (rabbit, UniProt P07511 1-484)
T2 construct: rabbit cytosolic serine hydroxymethyltransferase; In the PLP transfer experiments the apo form (PLP removed with D-alanine) was used; the fluorescence polarization text names rcSHMT without saying apo or holo; also called apo-rcSHMT; apo-SHMT
T2 sequence (looked up): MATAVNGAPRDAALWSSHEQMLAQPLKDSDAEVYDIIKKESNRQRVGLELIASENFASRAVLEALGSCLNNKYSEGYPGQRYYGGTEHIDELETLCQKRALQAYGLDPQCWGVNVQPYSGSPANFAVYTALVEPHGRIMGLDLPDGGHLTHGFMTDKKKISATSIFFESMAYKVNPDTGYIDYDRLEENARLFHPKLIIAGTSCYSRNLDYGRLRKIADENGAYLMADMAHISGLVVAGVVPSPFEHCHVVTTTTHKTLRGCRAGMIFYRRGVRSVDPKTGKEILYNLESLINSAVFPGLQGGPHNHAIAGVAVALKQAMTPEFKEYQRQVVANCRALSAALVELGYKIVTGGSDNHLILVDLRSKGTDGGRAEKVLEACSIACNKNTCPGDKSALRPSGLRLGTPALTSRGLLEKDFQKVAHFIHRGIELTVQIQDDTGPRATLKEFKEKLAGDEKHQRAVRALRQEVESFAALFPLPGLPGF

[3] = biological target: T3, E. coli L-threonine aldolase (eL-TA) (E. coli, UniProt P75823 1-333)
T3 construct: E. coli L-threonine aldolase
T3 sequence (looked up): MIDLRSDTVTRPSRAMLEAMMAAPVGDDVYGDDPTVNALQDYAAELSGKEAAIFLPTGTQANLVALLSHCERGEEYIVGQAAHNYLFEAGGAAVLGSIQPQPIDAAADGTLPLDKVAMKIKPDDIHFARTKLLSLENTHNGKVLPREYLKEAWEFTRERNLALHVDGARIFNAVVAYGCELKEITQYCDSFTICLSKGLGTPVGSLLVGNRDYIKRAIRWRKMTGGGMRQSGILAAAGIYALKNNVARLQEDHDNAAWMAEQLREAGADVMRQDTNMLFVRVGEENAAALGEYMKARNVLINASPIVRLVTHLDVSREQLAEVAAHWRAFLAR

[4] = biological target: T4, E. coli serine hydroxymethyltransferase (eSHMT) (E. coli, UniProt P0A825 1-417)
T4 construct: E. coli serine hydroxymethyltransferase; also called E. coli SHMT
T4 sequence (looked up): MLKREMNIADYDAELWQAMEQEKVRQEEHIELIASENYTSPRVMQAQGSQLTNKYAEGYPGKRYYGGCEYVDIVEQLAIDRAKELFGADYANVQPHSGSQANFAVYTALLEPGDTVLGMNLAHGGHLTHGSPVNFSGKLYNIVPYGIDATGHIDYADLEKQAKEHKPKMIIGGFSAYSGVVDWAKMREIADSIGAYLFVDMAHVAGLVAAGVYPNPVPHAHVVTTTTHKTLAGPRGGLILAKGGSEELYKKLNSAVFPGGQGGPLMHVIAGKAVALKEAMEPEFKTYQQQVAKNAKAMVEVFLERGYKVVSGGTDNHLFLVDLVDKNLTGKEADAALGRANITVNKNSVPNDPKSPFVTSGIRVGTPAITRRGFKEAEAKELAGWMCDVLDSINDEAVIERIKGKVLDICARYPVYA

B1: wild-type human pyridoxine 5′-phosphate oxidase (hPNPO) (enzyme)
chain: MTCWLRGVTATFGRPAEWPGYLSHLCGRSAAMDLGPMRKSYRGDREAFEETHLTSLDPVKQFAAWFEEAVQCPDIGEANAMCLATCTRDGKPSARMLLLKGFGKDGFRFFTNFESRKGKELDSNPFASLVFYWEPLNRQVRVEGPVKKLPEEEAECYFHSRPKSSQIGAVVSHQSSVIPDREYLRKKNEELEQLYQDQEVPKPKSWGGYVLYPQVMEFWQGQTNRLHDRIVFRRGLPTGDSPLGPMTHRGEEDWLYERLAP
modifications: labelled with fluorescein 5-maleimide (FMI) in the fluorescence polarization assay; labelled residues not stated
notes: human pyridoxine 5′-phosphate oxidase, wild type; FMI-labelled in the fluorescence polarization assay; also called FMI-labeled hPNPO; FMI-tagged hPNPO
[1]
  Kd: 300 nM
[2]
  Kd: 800 nM
[3]
  Kd: 12300 nM
[4]
  Kd: 1700 nM
